target: T1, HLA-A*02:01 (human); test: UV peptide exchange ELISA
T1 construct: monomers captured on streptavidin plates; also called MHC class I
Method in brief: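 Peptide-MHC complexes formed by UV-triggered exchange of a cleavable peptide for the test peptide, with stabilised complexes indicating binding. Exchange products diluted 100 fold onto streptavidin-coated wells, 1h at 37° C.; HRP anti-β2m (2 μg/ml), TMB, absorbance at 450 nm gives exchange yield.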

LILDWVPYI and SLQNHNHQL fall in the same range of peptide exchange yield: 50 to 75% for the first, 50 to 75% for the second.

YLMDLINFL and RLADKSVLV fall in the same range of peptide exchange yield: 50 to 75% for the first, 50 to 75% for the second.

FLLDSSASV and SLLEQGLVEA fall in the same range of peptide exchange yield: 20 to 50% for the first, 20 to 50% for the second.

First: ILLEHGADPNL
Second: LLADVTHLL
The peptide exchange yield of the first is higher: 50 to 75% for the first, 20 to 50% for the second.

First: KLGHTDILVGV
Second: QLLDETSAITL
The peptide exchange yield of the first is lower: 20 to 50% for the first, 50 to 75% for the second.

First: GLWEIENNPTV
Second: SLLEDKGLAEV
The peptide exchange yield of the first is higher: 50 to 75% for the first, 20 to 50% for the second.

KMLGIPISNILMV and SLLQDLVSV fall in the same range of peptide exchange yield: 50 to 75% for the first, 50 to 75% for the second.

ALFMKQIYL and YLLQEIYGI fall in the same range of peptide exchange yield: 50 to 75% for the first, 50 to 75% for the second.

GLLRDEALAEV and KLAEGLDIQL fall in the same range of peptide exchange yield: 50 to 75% for the first, 50 to 75% for the second.

GLLDTQTSQVLTA and LLLLDTVTMQV fall in the same range of peptide exchange yield: 20 to 50% for the first, 20 to 50% for the second.

First: TLIEDEIATI
Second: ILFANPNIFV
The peptide exchange yield of the first is lower: 20 to 50% for the first, 50 to 75% for the second.

Compared with SLLTEQDLWTV, FLQAHLHTA is higher in peptide exchange yield: 20 to 50% for the first, ≥ 75% for the second.

Compared with IMEGTLTRV, LLAVIGGLVYL is higher in peptide exchange yield: 20 to 50% for the first, 50 to 75% for the second.

Compared with ILADIVISA, KLLEEDGTIITL is lower in peptide exchange yield: 50 to 75% for the first, 20 to 50% for the second.

Compared with ALLPDLPAL, ALQNYIKEA is lower in peptide exchange yield: 50 to 75% for the first, 20 to 50% for the second.

HLAEVSAEV and ALLPLSPYL fall in the same range of peptide exchange yield: 50 to 75% for the first, 50 to 75% for the second.

First: FIDEAYVEV
Second: NLLETKLQL
The peptide exchange yield of the first is lower: 20 to 50% for the first, 50 to 75% for the second.

TMLLNIPLV and KLYDRILRV fall in the same range of peptide exchange yield: 20 to 50% for the first, 20 to 50% for the second.

ALALGGIAVV and ALGYFVPYV cannot be ordered by peptide exchange yield: ≥ 75% for the first, 50 to 75% for the second.

YLAPELFVNV and AMFESSQNVLL fall in the same range of peptide exchange yield: 20 to 50% for the first, 20 to 50% for the second.

LLDAMNYHL and KLDDLTQDLTV fall in the same range of peptide exchange yield: 20 to 50% for the first, 20 to 50% for the second.

First: ALYDVFLEV
Second: YLFGERLLEC
The peptide exchange yield of the first is lower: 20 to 50% for the first, 50 to 75% for the second.

ALLELENSVTL and ILLDDTGLAYI fall in the same range of peptide exchange yield: 50 to 75% for the first, 50 to 75% for the second.

GLLGGGGVLGV and QLIPALAKV fall in the same range of peptide exchange yield: 50 to 75% for the first, 50 to 75% for the second.

QLVPALAKV and SLVNVVPKL fall in the same range of peptide exchange yield: 20 to 50% for the first, 20 to 50% for the second.

GLFPEHLIDV and YLFEPLYHV fall in the same range of peptide exchange yield: 50 to 75% for the first, 50 to 75% for the second.

First: VLFSGALLGL
Second: KLLPLAGLYL
The peptide exchange yield of the first is lower: 20 to 50% for the first, ≥ 75% for the second.

ALLENPKMEL and RLLDMGETDLML fall in the same range of peptide exchange yield: 50 to 75% for the first, 50 to 75% for the second.

First: HLYSSIEHLTT
Second: VLLSLLEKV
The peptide exchange yield of the first is higher: 50 to 75% for the first, 20 to 50% for the second.

KVSNSGITRV and TLIEESAKV fall in the same range of peptide exchange yield: 20 to 50% for the first, 20 to 50% for the second.

Compared with YVYPQRLNFV, VLDDSIYLV is lower in peptide exchange yield: 50 to 75% for the first, 20 to 50% for the second.

GLVNDLARV and YLDDLNEGVYI fall in the same range of peptide exchange yield: 20 to 50% for the first, 20 to 50% for the second.

Compared with FLLQQHLISA, FMIDASVHPTL is higher in peptide exchange yield: 20 to 50% for the first, 50 to 75% for the second.

AMLNEPWAV and SMAPGLVIQAV fall in the same range of peptide exchange yield: 50 to 75% for the first, 50 to 75% for the second.

First: ALLHPQGFEV
Second: YVIDQGETDVYV
The peptide exchange yield of the first is lower: 20 to 50% for the first, 50 to 75% for the second.

ILFRYPLTI and ALFQATAEV cannot be ordered by peptide exchange yield: 50 to 75% for the first, ≥ 75% for the second.

Work on ALADGVTMQV yielded a peptide exchange yield of 20 to 50%.

— patent US20170037110A1 (IMMATICS BIOTECHNOLOGIES, published 2017)
